These results are taken from patent publication US20250179196A1 (Janssen / Centocor, published 2025).

Where a chain is given by its changes, count along the chain named. Bounds are passed on as bounds.

T1: rat IL-23R extracellular domain (ECD) protein (rat)
T1 construct: also called rat IL-23R ECD; F1LX96 amino acids 24-354
T1 chain: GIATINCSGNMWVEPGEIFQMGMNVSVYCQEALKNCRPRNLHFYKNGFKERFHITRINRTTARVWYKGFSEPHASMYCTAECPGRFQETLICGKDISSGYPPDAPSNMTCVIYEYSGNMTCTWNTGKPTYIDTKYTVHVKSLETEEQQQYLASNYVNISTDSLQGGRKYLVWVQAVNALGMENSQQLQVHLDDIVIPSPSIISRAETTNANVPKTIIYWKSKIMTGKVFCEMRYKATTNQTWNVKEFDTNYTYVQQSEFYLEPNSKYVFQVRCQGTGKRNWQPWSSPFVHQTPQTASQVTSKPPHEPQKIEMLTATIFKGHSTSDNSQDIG

T2: Recombinant human IL-23 receptor (IL-23R) extracellular domain (ECD) protein (human, UniProt Q5VWK5 24-355)
T2 construct: also called human IL-23R ECD; hu IL-23R ECD
T2 sequence: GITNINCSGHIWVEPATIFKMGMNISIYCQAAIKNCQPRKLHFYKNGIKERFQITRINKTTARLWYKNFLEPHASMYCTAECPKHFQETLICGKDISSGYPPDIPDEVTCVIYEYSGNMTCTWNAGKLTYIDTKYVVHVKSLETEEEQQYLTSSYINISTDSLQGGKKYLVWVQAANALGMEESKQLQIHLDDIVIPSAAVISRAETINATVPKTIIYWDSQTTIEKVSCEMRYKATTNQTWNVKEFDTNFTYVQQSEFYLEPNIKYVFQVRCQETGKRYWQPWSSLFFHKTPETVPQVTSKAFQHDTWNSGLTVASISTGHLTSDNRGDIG

B1: I23RB269 (antibody, mouse IgG2a, kappa, V domains shown)
VH: QVQLVQSGAEVKKPGSSVKVSCKASGGTFSDASISWVRQAPGQGLEWMGTIIPISGNANYAQKFQGRVTITADESTSTAYMELSSLRSEDTAVYYCARDRYVWYYWDGYFDYWGQGTLVTVSS
VL: not shown
notes: phage display; human V regions, mouse IgG2a/kappa constant regions
B2: I23RB67 (antibody, mouse IgG2a, kappa, V domains shown)
VH: EVQLQQSGAELVKPGASVKLSCKASGYTFTSYWINWVKQRPGQGLEWIGNIYPGSSSTNYNEKFKSKATLTVDTSSSTAYMQLSSLTSDDSAVYYCARSAYGNRLAMDYWGQGTTLTVSS
VL: DVVMTQSHKFMSTSVGDRVSITCKASQDVSTAVAWYQQKPGQSPKLLIYSAFYRYTGVPDRFTGSGSGTDFTFTISSVQAEDLAVYYCQQHYSTPYTFGGGTKLELKR
notes: mouse immunization; mouse IgG2a/kappa
B3: I23RB74 (antibody, mouse IgG2a, kappa, V domains shown)
VH: DVQLQESGPGLVKPSQSLSLTCSVTGYSITSGYYWNWIRQFPGNKLEWMGYISYDGSFNYNPSLKNRLSITRDTSMNQFFLKLNSVTSEDTATYYCARAEIYYDYDGDFDYWGQGTTLTVSS
VL: DIVLTQSPASLAVSLGQRATISCRASKSVSTSGSNFLHWYQQKPGQPPKLLIYFASNLESGVPARFSGSGSGTDFTLNIHPVEEEDAATYYCQHSRELPHTFGAGTKLELKR
notes: as for B2
B4: I23RB78 (antibody, mouse IgG2a, kappa, V domains shown)
VH: EFQLQQSGGGLVKPGGSLKLSCAASGFTFSNYTMSWVRQTPEKRLKWVACISSGGGNTYYPDSVKGRFTISRDNARNTLYLQMSSLRSEDTAMYYCARRNYRRAMDYWGQGTSVTVSS
VL: DIVMTQSPASLAVSLGQRATISCRASESVDSYGISFMHWYQQKPGQPPKLLIYRASNLESGIPARFSGSGSRTDFTLTINPVEADDVATYYCQQSNEDPWTFGAGTGLEIKR
notes: as for B2
B5: I23RB267 (antibody, mouse IgG2a, kappa, V domains shown)
VH: EVQLVQSGAEVKKPGESLKISCKGSGYSFTSYWIGWVRQMPGKGLEWMGIIYPGDSDTRYSPSFQGQVTISADKSISTAYLQWSSLKASDTAMYYCARVWYSSWDLDYWGQGTLVTVSS
VL: not shown
notes: as for B1
B6: I23RB270 (antibody, mouse IgG2a, kappa, V domains shown)
VH: QVQLVQSGAEVKKPGSSVKVSCKASGGTFDSYAISWVRQAPGQGLEWMGGIIPISGYANYAQKFQGRVTITADESTSTAYMELSSLRSEDTAVYYCARDLSGGYLGLRTLYYYYFDYWGQGTLVTVSS
VL: EIVLTQSPATLSLSPGERATLSCRASQSVSSYLAWYQQKPGQAPRLLIYDASNRATGIPARFSGSGSGTDFTLTISSLEPEDFAVYYCQQRSNWPLTFGQGTKVEIKR
notes: as for B1
B7: I23RB268 (antibody, mouse IgG2a, kappa, V domains shown)
VH: QVQLVQSGAEVKKPGSSVKVSCKASGGTFSSYYIHWVRQAPGQGLEWMGGIIPIFGYANYAQKFQGRVTITADESTSTAYMELSSLRSEDTAVYYCARDPGSYGSVYYRRSYYFDYWGQGTLVTVSS
VL: B6 VL
notes: as for B1
B8: I23RB318 (antibody, mouse IgG2a, kappa, V domains shown)
VH: QVQLVQSGAEVKKPGSSVKVSCKASGGTFSSYAISWVRQAPGQGLEWMGGIIPIFGTANYAQKFQGRVTITADESTSTAYMELSSLRSEDTAVYYCARVRARHRGSFDYWGQGTLVTVSS
VL: DIQMTQSPSSLSASVGDRVTITCRASQSIDRWLNWYQQKPGKAPKLLIYYASSLQSGVPSRFSGSGSGTDFTLTISSLQPEDFATYYCQQSYSTPLTFGQGTKVEIKR
notes: as for B1
B9: I23RB313 (antibody, mouse IgG2a, kappa, V domains shown)
VH: QVQLVQSGAEVKKPGSSVKVSCKASGGTFSSYGISWVRQAPGQGLEWMGWISAIFGTTNYAQKFQGRVTITADESTSTAYMELSSLRSEDTAVYYCARGTVPGFDYWGQGTLVTVSS
VL: B8 VL with D30G, R31E, W32D, Y50A
notes: as for B1
B10: I23RB98 (antibody, mouse IgG2a, kappa, V domains shown)
VH: EFQLQQSGPELVKPGASVKMSCKASGYTFTNYYMHWVKQSHGKTIEWIGYIYPNSGDTSYNQKFKGKATLTVDKSSSTAYMELRSLTSEDSAVYTCARFGGFYDAMDYWGQGTTVTVSS
VL: DIVLTQSPAIMSASLGERVTMTCTASSSVSSSYLHWYQQKPGSSPKLWIYSTSNLASGVPARFSGSGSGTSYSLTISSMEAEDAATYYCHQYHRSPFTFGSGTKLEMKR
notes: as for B2
B11: I23RB57 (antibody, mouse IgG2a, kappa, V domains shown)
VH: B10 VH with T95N, T114S
VL: B10 VL with L4M, M107I
notes: as for B2
B12: I23RB54 (antibody, mouse IgG2a, kappa, V domains shown)
VH: EVQLQQSGGGLVKPGGSLKLSCAASGFTFSSYAMSWVRQTPEKRLEWVAGISSGGSYIYYPDNVKGRFTISRDNARNTLYLQMSSLRSEDTAMYYCARKKSDYGAMDYWGQGTTLTVSS
VL: DIQMTQSPKFLLVSAGDRVTITCKASQSVSNDVAWYQQKPGQSPRLLIYYASNRYTGVPDRFTGSGYGTDFTFTISTVQAEDLAVYFCQQDYSSLPTFGAGTKLEMKR
notes: as for B2

One test concerns the target T1, rat IL-23R extracellular domain (ECD) …. Put plainly: SPR Biacore 8K, supernatant. As to the method:
(§1) Affinity by SPR using Biacore 8K. Affinity measurements using Surface Plasmon Resonance (SPR) were performed using a Biacore 8K system (Cytiva). […] Approximately 9000-10000 RU (response units) of mAbs were immobilized. The kinetic experiments were performed at 25° C. in running buffer 1× of (HBS-P+ Buffer 10× (Cytiva #BR100671)+100 μg/ml BSA). To perform kinetic experiments, approximately 150 RU of mAbs were captured followed by injections of human IL-23R or rat IL-23R at concentrations ranging from 0.8 nM to 500 nM (in a 5-fold serial dilution). The association phase was monitored for 3 minutes at 50 μL/min, then followed by 30 minutes of buffer flow (dissociation phase). […] The collected data were processed using Biacore insight Evaluation software (Version 3.0.12.15655). The kinetic analysis of the data was performed using a Langmuir 1:1 binding model. The result for each mAb was reported in the format of Ka (On-rate), Kd (Off-rate) and KD (equilibrium dissociation constant).
As for B1, the binding result was “no binding (tested: 500 nM)”.

With B2, the binding result is on record as “no binding (tested: 500 nM)”.

Take B3: the binding result is “no binding (tested: 500 nM)”.

Consider B4, for which the binding result is reported as “no binding (tested: 500 nM)”.

Consider B5, for which the binding result is “no binding (tested: 500 nM)”.

Regarding B6, the binding result was “no binding (tested: 500 nM)”.

B7: the binding result is recorded as “no binding (tested: 500 nM)”.

With B8, the binding result is listed as “no binding (tested: 500 nM)”.

On to B9, for which the binding result is listed as “no binding (tested: 500 nM)”.

Consider B10, for which the binding result is listed as “no binding (tested: 500 nM)”.

Take B11: the binding result is given as “no binding (tested: 500 nM)”.

Consider B12, for which the binding result is recorded as “no binding (tested: 500 nM)”.

In another test the target is T2, Recombinant human IL-23 receptor …. Put plainly: SPR Biacore 8K, supernatant, analysis 2. The method, then: as §1
For B1, the Kd was found to be 1.41 nM, the koff turned out to be 0.000542 s⁻¹ and the kon amounted to 385000 M⁻¹ s⁻¹.

For the molecule B2, the dissociation constant Kd came to 25.4 nM, the koff stood at 0.0172 s⁻¹ and the kon is 677000 M⁻¹ s⁻¹.

In the case of B3, the dissociation constant Kd was 2.33 nM, the koff worked out at 0.00222 s⁻¹ and the on-rate constant (kon) worked out at 954000 M⁻¹ s⁻¹.

In the case of B4, the Kd was found to be 4.33 nM, the off-rate constant (koff) was found to be 0.000774 s⁻¹ and the association rate constant (kon) was found to be 179000 M⁻¹ s⁻¹.

As for B5, the Kd came to 7.56 nM, the koff stood at 0.000178 s⁻¹ and the on-rate (kon) was found to be 23500 M⁻¹ s⁻¹.

As to B6, the equilibrium dissociation constant (Kd) was found to be 2.46 nM, the koff was 0.00101 s⁻¹ and the kon stood at 409000 M⁻¹ s⁻¹.

As for B7, the equilibrium dissociation constant (Kd) came to 18.9 nM, the koff turned out to be 0.000308 s⁻¹ and the on-rate (kon) is 16300 M⁻¹ s⁻¹.

For B8, the Kd is 21.4 nM, the koff came out at 0.00156 s⁻¹ and the kon worked out at 72900 M⁻¹ s⁻¹.

For B9, the Kd was found to be 4.85 nM, the off-rate constant (koff) was found to be 0.000108 s⁻¹ and the kon came to 22300 M⁻¹ s⁻¹.

For B10, the Kd amounted to 25.8 nM, the dissociation rate constant (koff) worked out at 0.0035 s⁻¹ and the association rate constant (kon) turned out to be 136000 M⁻¹ s⁻¹.

Consider B11, for which the Kd was 38.1 nM, the koff came out at 0.00307 s⁻¹ and the kon is 80700 M⁻¹ s⁻¹.

As to B12, the Kd is 183 nM, the off-rate (koff) was found to be 0.0979 s⁻¹ and the kon is 534000 M⁻¹ s⁻¹.

The target is the same in another test. Put plainly: SPR Biacore 8K, supernatant, analysis 1. As to the method:
as §1
Consider B1, for which the Kd was determined as 1.09 nM, the dissociation rate constant (koff) was determined as 0.000514 s⁻¹ and the on-rate (kon) was found to be 473000 M⁻¹ s⁻¹.

In the case of B5, the equilibrium dissociation constant (Kd) was 18.1 nM, the off-rate constant (koff) was 0.000196 s⁻¹ and the kon is 10800 M⁻¹ s⁻¹.

In the case of B6, the dissociation constant (Kd) stood at 1.91 nM, the koff came to 0.00102 s⁻¹ and the on-rate constant (kon) is 535000 M⁻¹ s⁻¹.

Consider B7, for which the Kd was 12 nM, the koff was determined as 0.000273 s⁻¹ and the kon was determined as 22800 M⁻¹ s⁻¹.

B8: the equilibrium dissociation constant (Kd) came to 21.3 nM, the koff came out at 0.00167 s⁻¹ and the kon amounted to 78400 M⁻¹ s⁻¹.

For the molecule B9, the Kd was under 4.98 nM, the off-rate (koff) is under 2.89e-05 s⁻¹ and the kon came to 5800 M⁻¹ s⁻¹.

In the case of B10, the Kd came out at 39.1 nM, the koff is 0.00294 s⁻¹ and the association rate constant (kon) was determined as 75100 M⁻¹ s⁻¹.

As to B11, the dissociation constant Kd was found to be 29.2 nM, the koff was found to be 0.00299 s⁻¹ and the on-rate (kon) was found to be 102000 M⁻¹ s⁻¹.
